T1: EsCas13d, nuclease-dead (Eubacterium siraeum, UniProt B0MS50, R295A;H300A;R849A;H854A)
T1 sequence: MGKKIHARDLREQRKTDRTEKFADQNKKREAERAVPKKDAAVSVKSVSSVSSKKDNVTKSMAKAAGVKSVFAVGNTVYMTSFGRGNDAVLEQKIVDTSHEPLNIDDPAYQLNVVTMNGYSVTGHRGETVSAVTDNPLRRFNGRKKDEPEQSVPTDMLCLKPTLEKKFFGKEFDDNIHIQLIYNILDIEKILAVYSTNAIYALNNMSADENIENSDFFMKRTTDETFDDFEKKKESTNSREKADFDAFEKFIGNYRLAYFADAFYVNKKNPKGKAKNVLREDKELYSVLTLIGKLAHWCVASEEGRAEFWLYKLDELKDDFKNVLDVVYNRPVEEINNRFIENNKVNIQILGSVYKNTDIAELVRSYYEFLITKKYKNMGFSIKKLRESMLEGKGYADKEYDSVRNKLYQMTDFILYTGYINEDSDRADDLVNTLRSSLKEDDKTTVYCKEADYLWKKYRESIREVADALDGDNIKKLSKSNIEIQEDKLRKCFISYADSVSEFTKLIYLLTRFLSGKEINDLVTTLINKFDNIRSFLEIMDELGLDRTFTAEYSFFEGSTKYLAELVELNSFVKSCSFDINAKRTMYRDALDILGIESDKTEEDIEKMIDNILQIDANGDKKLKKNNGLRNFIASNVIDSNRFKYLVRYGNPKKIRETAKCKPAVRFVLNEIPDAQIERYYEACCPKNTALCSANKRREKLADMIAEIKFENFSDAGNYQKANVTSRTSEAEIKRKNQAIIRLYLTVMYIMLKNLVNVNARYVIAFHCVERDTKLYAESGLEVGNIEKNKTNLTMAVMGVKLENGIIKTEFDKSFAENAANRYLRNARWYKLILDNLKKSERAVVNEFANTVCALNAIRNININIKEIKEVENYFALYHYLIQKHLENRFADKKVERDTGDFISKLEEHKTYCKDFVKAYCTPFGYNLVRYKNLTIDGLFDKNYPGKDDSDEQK


Each binder was assayed against T1, EsCas13d, nuclease-dead (assay: crRNA (strand 1, pre-loaded); Mg2+; 40 mM Tris-HCl pH 7.5, 150 mM NaCl, 6 mM MgCl2, 1 mM DTT, 0.1% Tween-20, 0.2 mg/ml BSA; 25 C; 10 min per concentration, then washed). Details: tags: His6-TwinStrep-SUMO cleaved; N-terminal SNAP kept (SNAP-Surface 488); label: 3' end held by stalled T7 RNA polymerase.

Binder | Kd
target 1 insG 3' of 7,insU 3' of 5 (mixed) RNA 1: CACCCGUGCAAAAAUGCAGGGGUCUAAAACUGAGCGGAUAACCUCUCUAUGG RNA 2: GGGAAUGGAUCCACAUCUACGAAUUCGUACCAUAGAGAGGUUAUCGCGUCUCACCGAGAUCGGAAGAGCACACGU | 13.8 ± 1 nM
target 1 complement block 7-9 (mixed) RNA 1: CACCCGUGCAAAAAUGCAGGGGUCUAAAACUGAGCGGAUAACCUCUCUAUGG RNA 2: GGGAAUGGAUCCACAUCUACGAAUUCGUACCAUAGAGAGGUUUAGCGCUCACCGAGAUCGGAAGAGCACACGU | 6.54 ± 0.23 nM
target 1 U10C,G13U (mixed) RNA 1: CACCCGUGCAAAAAUGCAGGGGUCUAAAACUGAGCGGAUAACCUCUCUAUGG RNA 2: GGGAAUGGAUCCACAUCUACGAAUUCGUACCAUAGAGAUGUCAUCCGCUCACCGAGAUCGGAAGAGCACACGU | 71 ± 18 nM
target 1 insC 3' of 20,insC 3' of 3 (mixed) RNA 1: CACCCGUGCAAAAAUGCAGGGGUCUAAAACUGAGCGGAUAACCUCUCUAUGG RNA 2: GGGAAUGGAUCCACAUCUACGAAUUCGUACCACUAGAGAGGUUAUCCGCUCCACCGAGAUCGGAAGAGCACACGU | 8.5 ± 0.4 nM
target 1 C7U,A16G (mixed) RNA 1: CACCCGUGCAAAAAUGCAGGGGUCUAAAACUGAGCGGAUAACCUCUCUAUGG RNA 2: GGGAAUGGAUCCACAUCUACGAAUUCGUACCAUAGGGAGGUUAUUCGCUCACCGAGAUCGGAAGAGCACACGU | 29.9 ± 2.6 nM
target 1 A1G,C22A (mixed) RNA 1: CACCCGUGCAAAAAUGCAGGGGUCUAAAACUGAGCGGAUAACCUCUCUAUGG RNA 2: GGGAAUGGAUCCACAUCUACGAAUUCGUAACAUAGAGAGGUUAUCCGCUCGCCGAGAUCGGAAGAGCACACGU | 12 ± 0.7 nM
target 1 G15C,G17C (mixed) RNA 1: CACCCGUGCAAAAAUGCAGGGGUCUAAAACUGAGCGGAUAACCUCUCUAUGG RNA 2: GGGAAUGGAUCCACAUCUACGAAUUCGUACCAUACACAGGUUAUCCGCUCACCGAGAUCGGAAGAGCACACGU | 50 ± 10 nM
target 1 insC 3' of 17,insU 3' of 12 (mixed) RNA 1: CACCCGUGCAAAAAUGCAGGGGUCUAAAACUGAGCGGAUAACCUCUCUAUGG RNA 2: GGGAAUGGAUCCACAUCUACGAAUUCGUACCAUAGCAGAGGUUUAUCCGCUCACCGAGAUCGGAAGAGCACACGU | 42 ± 6 nM
target 1 insA 3' of 22,insG 3' of 7 (mixed) RNA 1: CACCCGUGCAAAAAUGCAGGGGUCUAAAACUGAGCGGAUAACCUCUCUAUGG RNA 2: GGGAAUGGAUCCACAUCUACGAAUUCGUACACAUAGAGAGGUUAUCGCGCUCACCGAGAUCGGAAGAGCACACGU | 8.62 ± 0.35 nM
target 1 insU 3' of 7,insA 3' of 6 (mixed) RNA 1: CACCCGUGCAAAAAUGCAGGGGUCUAAAACUGAGCGGAUAACCUCUCUAUGG RNA 2: GGGAAUGGAUCCACAUCUACGAAUUCGUACCAUAGAGAGGUUAUCUCAGCUCACCGAGAUCGGAAGAGCACACGU | 23.7 ± 0.8 nM
target 1 insA 3' of 15,insU 3' of 2 (mixed) RNA 1: CACCCGUGCAAAAAUGCAGGGGUCUAAAACUGAGCGGAUAACCUCUCUAUGG RNA 2: GGGAAUGGAUCCACAUCUACGAAUUCGUACCAUAGAGAAGGUUAUCCGCUCUACCGAGAUCGGAAGAGCACACGU | 6.5 ± 0.4 nM
target 1 U8A,A18U (mixed) RNA 1: CACCCGUGCAAAAAUGCAGGGGUCUAAAACUGAGCGGAUAACCUCUCUAUGG RNA 2: GGGAAUGGAUCCACAUCUACGAAUUCGUACCAUUGAGAGGUUAACCGCUCACCGAGAUCGGAAGAGCACACGU | 78 ± 23 nM
target 1 G5A,G12A (mixed) RNA 1: CACCCGUGCAAAAAUGCAGGGGUCUAAAACUGAGCGGAUAACCUCUCUAUGG RNA 2: GGGAAUGGAUCCACAUCUACGAAUUCGUACCAUAGAGAGAUUAUCCACUCACCGAGAUCGGAAGAGCACACGU | 10.2 ± 1.5 nM
target 1 insA 3' of 17,insA 3' of 5 (mixed) RNA 1: CACCCGUGCAAAAAUGCAGGGGUCUAAAACUGAGCGGAUAACCUCUCUAUGG RNA 2: GGGAAUGGAUCCACAUCUACGAAUUCGUACCAUAGAAGAGGUUAUCCGACUCACCGAGAUCGGAAGAGCACACGU | 10.6 ± 1.1 nM
target 1 insG 3' of 2,insU 3' of 1 (mixed) RNA 1: CACCCGUGCAAAAAUGCAGGGGUCUAAAACUGAGCGGAUAACCUCUCUAUGG RNA 2: GGGAAUGGAUCCACAUCUACGAAUUCGUACCAUAGAGAGGUUAUCCGCUCGAUCCGAGAUCGGAAGAGCACACGU | 9.9 ± 0.9 nM
target 1 A14G,C21A (mixed) RNA 1: CACCCGUGCAAAAAUGCAGGGGUCUAAAACUGAGCGGAUAACCUCUCUAUGG RNA 2: GGGAAUGGAUCCACAUCUACGAAUUCGUACAAUAGAGGGGUUAUCCGCUCACCGAGAUCGGAAGAGCACACGU | 46 ± 12 nM
target 1 C6U,G13U (mixed) RNA 1: CACCCGUGCAAAAAUGCAGGGGUCUAAAACUGAGCGGAUAACCUCUCUAUGG RNA 2: GGGAAUGGAUCCACAUCUACGAAUUCGUACCAUAGAGAUGUUAUCUGCUCACCGAGAUCGGAAGAGCACACGU | 38 ± 5 nM
target 1 insG 3' of 2,insA 3' of 2 (mixed) RNA 1: CACCCGUGCAAAAAUGCAGGGGUCUAAAACUGAGCGGAUAACCUCUCUAUGG RNA 2: GGGAAUGGAUCCACAUCUACGAAUUCGUACCAUAGAGAGGUUAUCCGCUCGAACCGAGAUCGGAAGAGCACACGU | 10 ± 0.8 nM
target 1 insA 3' of 4,insA 3' of 4 (mixed) RNA 1: CACCCGUGCAAAAAUGCAGGGGUCUAAAACUGAGCGGAUAACCUCUCUAUGG RNA 2: GGGAAUGGAUCCACAUCUACGAAUUCGUACCAUAGAGAGGUUAUCCGCAAUCACCGAGAUCGGAAGAGCACACGU | 5.91 ± 0.24 nM
target 1 insC 3' of 10,insC 3' of 3 (mixed) RNA 1: CACCCGUGCAAAAAUGCAGGGGUCUAAAACUGAGCGGAUAACCUCUCUAUGG RNA 2: GGGAAUGGAUCCACAUCUACGAAUUCGUACCAUAGAGAGGUUCAUCCGCUCCACCGAGAUCGGAAGAGCACACGU | 20.2 ± 3.1 nM
target 1 C7U,G13C (mixed) RNA 1: CACCCGUGCAAAAAUGCAGGGGUCUAAAACUGAGCGGAUAACCUCUCUAUGG RNA 2: GGGAAUGGAUCCACAUCUACGAAUUCGUACCAUAGAGACGUUAUUCGCUCACCGAGAUCGGAAGAGCACACGU | ~70 nM
target 1 insU 3' of 12,insA 3' of 2 (mixed) RNA 1: CACCCGUGCAAAAAUGCAGGGGUCUAAAACUGAGCGGAUAACCUCUCUAUGG RNA 2: GGGAAUGGAUCCACAUCUACGAAUUCGUACCAUAGAGAGGUUUAUCCGCUCAACCGAGAUCGGAAGAGCACACGU | 7 ± 0.4 nM
target 1 C6U (mixed) RNA 1: CACCCGUGCAAAAAUGCAGGGGUCUAAAACUGAGCGGAUAACCUCUCUAUGG RNA 2: GGGAAUGGAUCCACAUCUACGAAUUCGUACCAUAGAGAGGUUAUCUGCUCACCGAGAUCGGAAGAGCACACGU | 8.5 ± 0.4 nM
target 1 C2U,A16G (mixed) RNA 1: CACCCGUGCAAAAAUGCAGGGGUCUAAAACUGAGCGGAUAACCUCUCUAUGG RNA 2: GGGAAUGGAUCCACAUCUACGAAUUCGUACCAUAGGGAGGUUAUCCGCUUACCGAGAUCGGAAGAGCACACGU | 39.3 ± 2.7 nM
target 1 insU 3' of 17,insA 3' of 7 (mixed) RNA 1: CACCCGUGCAAAAAUGCAGGGGUCUAAAACUGAGCGGAUAACCUCUCUAUGG RNA 2: GGGAAUGGAUCCACAUCUACGAAUUCGUACCAUAGUAGAGGUUAUCACGCUCACCGAGAUCGGAAGAGCACACGU | 14.2 ± 1.2 nM
target 1 insG 3' of 10,insG 3' of 6 (mixed) RNA 1: CACCCGUGCAAAAAUGCAGGGGUCUAAAACUGAGCGGAUAACCUCUCUAUGG RNA 2: GGGAAUGGAUCCACAUCUACGAAUUCGUACCAUAGAGAGGUUGAUCCGGCUCACCGAGAUCGGAAGAGCACACGU | 22.2 ± 1.5 nM
target 1 A9G,C21U (mixed) RNA 1: CACCCGUGCAAAAAUGCAGGGGUCUAAAACUGAGCGGAUAACCUCUCUAUGG RNA 2: GGGAAUGGAUCCACAUCUACGAAUUCGUACUAUAGAGAGGUUGUCCGCUCACCGAGAUCGGAAGAGCACACGU | 9 ± 0.5 nM
target 1 insA 3' of 10,insG 3' of 9 (mixed) RNA 1: CACCCGUGCAAAAAUGCAGGGGUCUAAAACUGAGCGGAUAACCUCUCUAUGG RNA 2: GGGAAUGGAUCCACAUCUACGAAUUCGUACCAUAGAGAGGUUAAGUCCGCUCACCGAGAUCGGAAGAGCACACGU | 18.3 ± 0.8 nM
